Results from publication PMC4448153.

Biological target: T1, RamB-His (Corynebacterium glutamicum ATCC 13032?) (UniProt Q8NTD8)
T1 sequence: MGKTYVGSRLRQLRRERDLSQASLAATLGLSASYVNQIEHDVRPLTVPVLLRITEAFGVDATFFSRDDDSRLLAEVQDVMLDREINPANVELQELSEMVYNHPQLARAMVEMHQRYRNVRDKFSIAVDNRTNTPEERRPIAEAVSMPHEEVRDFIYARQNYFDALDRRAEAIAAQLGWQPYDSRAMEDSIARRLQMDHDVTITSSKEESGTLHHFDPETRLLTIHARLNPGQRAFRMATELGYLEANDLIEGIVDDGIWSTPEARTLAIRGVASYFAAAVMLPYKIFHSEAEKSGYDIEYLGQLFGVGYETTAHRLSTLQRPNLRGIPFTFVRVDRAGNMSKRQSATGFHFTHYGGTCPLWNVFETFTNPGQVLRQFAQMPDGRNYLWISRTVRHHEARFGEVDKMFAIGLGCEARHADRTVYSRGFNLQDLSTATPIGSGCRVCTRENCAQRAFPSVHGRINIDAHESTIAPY
Assay: EMSA
Conditions: EMSA: 100 mM Tris/HCl pH 7.5, 20% glycerol, 100 mM KCl, 20 mM MgCl2, 1 mM EDTA, 30 min room temperature, DNA 5-61 nM; pull-down bead equilibration: 20 mM …

Row | Sequence | binding
1 | CCCGATGTGGGTAGTGGCAGAATTTGCCGAACGATAGCCCAGAGTTCATAAGTTGTTAACCAAATTAGCCTGAGTTAGTCATTTCAAGGTCTTAGGTTTTTAAGTCGTGAGCAATCCGGAGGGAAACCG (double strand) [RcFc] | binds
2 | CGTCTAGATAAGACCTTGAAATGACTAACTCAGGCTAATTTGGTTAACAACTTATGAACTCTGGGCTATCGTTCGGCAAATTCTGCCACTACCCACATCTCACTCGTAACATTTGGAGACTCTAATCACAAAAATCGGCAATTTTCGACCCCTGCGGAACGAAAATCACCGATTCTTATTATTCTCACAGGTTTTTAGCAAGTCTCTTTTTTACTCGAGGGG (double strand) [RF4] | binds more weakly
3 | CGTCTAGATGCGGACTGCTGGGAAGATGCACCTTCAGCAACGAGCTGACCGGTAACACCGGAAAGGCCCTCAATGGATGCAGCATCGGAAGAACCGGTGGAAGCTGCAGATGAGGAGGTGGAATCAGACTCATTGGAGTCGGAGCAAGCTACAAGAGCGAAGGAGCCTGCAGTAACTGCGCCCACAAGGGCGATGGAGCGCTTAAGAGTGAGGTTCACGGGGAAGCCTTTCCGGTTTAAGTGAAGACATCGTCTGAGCAGATCCTGTAGGCGGGCCTCGAGGGG (double strand) [R3F0] | no binding
